Assay results as given in patent publication US20050271638A1 (published 2005).

Target: T1, β-catenin (mouse, UniProt Q02248 2-781)
T1 construct: whole, on cells; Detected by immunostaining; also called B-catenin
T1 sequence (looked up): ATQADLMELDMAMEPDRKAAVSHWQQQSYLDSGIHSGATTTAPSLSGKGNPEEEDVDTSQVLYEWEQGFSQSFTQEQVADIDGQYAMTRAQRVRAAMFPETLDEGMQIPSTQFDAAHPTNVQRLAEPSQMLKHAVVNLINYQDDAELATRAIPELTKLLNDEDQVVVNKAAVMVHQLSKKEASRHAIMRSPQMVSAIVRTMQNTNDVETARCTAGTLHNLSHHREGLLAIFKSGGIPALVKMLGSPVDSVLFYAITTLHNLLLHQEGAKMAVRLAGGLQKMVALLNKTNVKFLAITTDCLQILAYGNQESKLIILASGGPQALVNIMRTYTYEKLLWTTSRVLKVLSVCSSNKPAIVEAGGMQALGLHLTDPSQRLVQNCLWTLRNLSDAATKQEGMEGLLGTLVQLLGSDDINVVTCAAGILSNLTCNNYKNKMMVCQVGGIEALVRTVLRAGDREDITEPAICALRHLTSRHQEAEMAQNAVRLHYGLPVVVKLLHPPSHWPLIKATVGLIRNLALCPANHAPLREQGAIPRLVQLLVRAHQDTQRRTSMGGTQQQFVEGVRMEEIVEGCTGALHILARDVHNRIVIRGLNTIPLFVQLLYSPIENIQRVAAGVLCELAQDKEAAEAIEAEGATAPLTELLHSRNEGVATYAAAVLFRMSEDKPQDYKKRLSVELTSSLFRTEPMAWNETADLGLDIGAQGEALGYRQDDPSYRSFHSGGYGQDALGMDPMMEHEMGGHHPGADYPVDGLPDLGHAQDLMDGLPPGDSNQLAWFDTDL
Experiment: co-immunostaining of wild-type mouse intestine sections (FIG. 7G)

- binding result: binds
B1: N-cadherin (other, mouse, UniProt P15116 160-906, looked up)
chain: DWVIPPINLPENSRGPFPQELVRIRSDRDKNLSLRYSVTGPGADQPPTGIFIINPISGQLSVTKPLDRELIARFHLRAHAVDINGNQVENPIDIVINVIDMNDNRPEFLHQVWNGSVPEGSKPGTYVMTVTAIDADDPNALNGMLRYRILSQAPSTPSPNMFTINNETGDIITVAAGLDREKVQQYTLIIQATDMEGNPTYGLSNTATAVITVTDVNDNPPEFTAMTFYGEVPENRVDVIVANLTVTDKDQPHTPAWNAAYRISGGDPTGRFAILTDPNSNDGLVTVVKPIDFETNRMFVLTVAAENQVPLAKGIQHPPQSTATVSVTVIDVNENPYFAPNPKIIRQEEGLHAGTMLTTLTAQDPDRYMQQNIRYTKLSDPANWLKIDPVNGQITTIAVLDRESPNVKNNIYNATFLASDNGIPPMSGTGTLQIYLLDINDNAPQVLPQEAETCETPEPNSINITALDYDIDPNAGPFAFDLPLSPVTIKRNWTINRLNGDFAQLNLKIKFLEAGIYEVPIIITDSGNPPKSNISILRVKVCQCDSNGDCTDVDRIVGAGLGTGAIIAILLCIIILLILVLMFVVWMKRRDKERQAKQLLIDPEDDVRDNILKYDEEGGGEEDQDYDLSQLQQPDTVEPDAIKPVGIRRLDERPIHAEPQYPVRSAAPHPGDIGDFINEGLKAADNDPTAPPYDSLLVFDYEGSGSTAGSLSSLNSSSSGGDQDYDYLNDWGPRFKKLADMYGGGDD
notes: whole, on cells; Detected by immunostaining
